Measurements taken from the supplement of paper PMC9170038.

Tested on: MS2 coat protein
Assay: apparent KD of MS2 coat protein; designed switch direction (-1 OFF switch, 1 ON switch): 1; higher = weaker reporter binding
Outline: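 On Illumina chips, designed RNA switches with common flanks were made by stalled E. coli RNA polymerase. Titrations with SNAP-549-labelled MS2 coat protein, doubling from 0.7 or 1.5 nM to 3 µM, were done with no input, with 200 uM small-molecule ligand, or with an oligonucleotide input. Apparent KD is the median per design over clusters, from curve fits of normalised cluster fluorescence.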

[1] = Eterna round: R95, input ligand: FMN 200 uM
[2] = Eterna round: R95, input ligand: microRNA oligo, concentration not stated
[3] = Eterna round: R95, input ligand: none
[4] = input ligand: microRNA oligo, concentration not stated

Sequence	apparent KD of MS2 coat protein [1] [nM]	apparent KD of MS2 coat protein [2] [nM]	apparent KD of MS2 coat protein [3] [nM]	apparent KD of MS2 coat protein (input ligand: FMN 200 uM) [nM]	apparent KD of MS2 coat protein [4] [nM]	apparent KD of MS2 coat protein (input ligand: none) [nM]
UUUAGUUGCGGGCAGGAUAUGUAUUAAAAUACAUGAGGAUCACCCAUGUACGGGUAUAACACCCGACAGAAGGGCCAAUCGCGAC [Laonerce - 4] (puzzle: Same State 2)	16.8	62.6	91.5	–	–	–
UGAAUAGUUACAGGAUAUGAUCCGAAAAUUGGGUCAGAAGGGUGGGUGUUGUGCGCUAUGUGCUACAUGAGGAUCACCCAUGUU [SameState NG1 #36] (Eterna round: R96, puzzle: Same State NG 1)	–	–	–	341	22.5	41.2
CGUAGGUGGCUGGAGGAUAUUCGAGUGGUAACAUGAGGAUCACCCAUGUGUCGCGCGGUACAUGAGGAGAAGGCUGGCGGCCUGC (puzzle: Same State 2)	19.7	69.4	178	–	–	–
CAGAGCCCAUGGGCCUGACAUGAGGAUCACCCAUGUGGCUUUGAGGAUAUAAGCGGAAACAGCGCUUAGAAGGCGAAGCCUAAC [Rearisve] (Eterna round: R96, puzzle: Same State NG 3)	–	–	–	157	14.1	41.9
AGCUAUUAAUCAGGAUAUAGUGACAUGAGGAUCACCCAUGUAUUAAUGAUGAAAUGUGGUCGCCGCUAGAAGGGAUUACUAACA [SameState NG2 #44] (Eterna round: R96, puzzle: Same State NG 2)	–	–	–	67.1	22	30.1
AGUCCAGCCUGAGCUGGACAAAUGCAUGUACAUGAGGAUCACCCAUGUUCAUGUACAAGCAUUUUGCUCGUCUUAAA [Sensor for hsa-mir-208a (JL zipper 55 mod - 61 to A)] (Eterna round: R96, puzzle: Sensor for hsa-mir-208a)	–	–	–	330	13.5	346
AACAAUCUAUCUGAGGAUAUCAUGAAAUAAACAUGAGGAUCACCCAUGUGCAGGUAAACUGCAUAUGAGAAGGCAGAUAGAUUGA [salish99_ss2_r3_040] (puzzle: Same State 2)	60.1	314	571	–	–	–
UGCUACUGGGUAGGAUAUUUAGGAUAUGGGAAAGACUAAGUCUGUAGGUCACCUAACCCAGAAGGAGAGAAGGACCAUUCAGCU [pwkr ssNG2 2FMN + F9.33] (Eterna round: R96, puzzle: Same State NG 2)	–	–	–	29.5	55.3	32.7
AGUCCAGCCUGAGCUGGACAAAAGCAUGUACAUGAGGAUCACCCAUGUUCAUGUACAAGCUUUUUGCUCGUCUUUAA [salish99_208a_r3_096x] (Eterna round: R96, puzzle: Sensor for hsa-mir-208a)	–	–	–	559	14.5	577
GACCAACAUGAGGAUCACCCAUGUUUCUGAGGCACAGGAUAUCGACAGGCAAGACACCUGCGAGAAGGGUGACCUC [Same State 1 - Mod of Vinnie Diatater v.3] (puzzle: Same State 1)	49.2	38.8	30.2	–	–	–
AUAAAACAUGAGGAUCACCCAUGUCAACAAAGUCGAGGAUAUGGGCAAAGAAAAGAAUAACCAGAAGGCGAAUAAU [salish99_ss1_r3_055] (puzzle: Same State 1)	51.5	315	316	–	–	–
AUACAUAUCAGAGGAUAUCACGUCGUUUAGACGUGAGAAGGCUGAUCACACAUGAAUAUUAAUACAUGAGGAUCACCCAUGUAU [SSNG1/14-A3] (Eterna round: R96, puzzle: Same State NG 1)	–	–	–	13.7	13.4	20.9
UUUAUACAUGAGGAUCACCCAUGUCAAUGUAGUCGAGGAUAUGGGCAGCUGUGAGGCGUACUAGAAGGCGAAGAGG [JL-ss1-3.09 ViennaUCT mod] (puzzle: Same State 1)	103	378	579	–	–	–
GUGGAGGAUUAAGGAUAUUGAAUACAUAUGUUUAACAUGAGGAUCACCCAUGUGGGUUGCGGUAUCGAGAAGGUAAAUUACUGG [salish99_SSNG2_r04_034] (Eterna round: R96, puzzle: Same State NG 2)	–	–	–	146	63.2	117
